Measured values taken from IntAct's records for PubMed 24076655.

B1: E3 ubiquitin-protein ligase ARIH2 (Homo sapiens), O95376 (parent)
chain: MSVDMNSQGSDSNEEDYDPNCEEEEEEEEDDPGDIEDYYVGVASDVEQQGADAFDPEEYQFTCLTYKESEGALNEHMTSLASVLKVSHSVAKLILVNFHWQVSEILDRYKSNSAQLLVEARVQPNPSKHVPTSHPPHHCAVCMQFVRKENLLSLACQHQFCRSCWEQHCSVLVKDGVGVGVSCMAQDCPLRTPEDFVFPLLPNEELREKYRRYLFRDYVESHYQLQLCPGADCPMVIRVQEPRARRVQCNRCNEVFCFKCRQMYHAPTDCATIRKWLTKCADDSETANYISAHTKDCPKCNICIEKNGGCNHMQCSKCKHDFCWMCLGDWKTHGSEYYECSRYKENPDIVNQSQQAQAREALKKYLFYFERWENHNKSLQLEAQTYQRIHEKIQERVMNNLGTWIDWQYLQNAAKLLAKCRYTLQYTYPYAYYMESGPRKKLFEYQQAQLEAEIENLSWKVERADSYDRGDLENQMHIAEQRRRTLLKDFHDT

Variants of: B1
Settings: with cul5_human CUL5, Q93034
Chain of cul5_human CUL5, Q93034 (Q93034 whole entry): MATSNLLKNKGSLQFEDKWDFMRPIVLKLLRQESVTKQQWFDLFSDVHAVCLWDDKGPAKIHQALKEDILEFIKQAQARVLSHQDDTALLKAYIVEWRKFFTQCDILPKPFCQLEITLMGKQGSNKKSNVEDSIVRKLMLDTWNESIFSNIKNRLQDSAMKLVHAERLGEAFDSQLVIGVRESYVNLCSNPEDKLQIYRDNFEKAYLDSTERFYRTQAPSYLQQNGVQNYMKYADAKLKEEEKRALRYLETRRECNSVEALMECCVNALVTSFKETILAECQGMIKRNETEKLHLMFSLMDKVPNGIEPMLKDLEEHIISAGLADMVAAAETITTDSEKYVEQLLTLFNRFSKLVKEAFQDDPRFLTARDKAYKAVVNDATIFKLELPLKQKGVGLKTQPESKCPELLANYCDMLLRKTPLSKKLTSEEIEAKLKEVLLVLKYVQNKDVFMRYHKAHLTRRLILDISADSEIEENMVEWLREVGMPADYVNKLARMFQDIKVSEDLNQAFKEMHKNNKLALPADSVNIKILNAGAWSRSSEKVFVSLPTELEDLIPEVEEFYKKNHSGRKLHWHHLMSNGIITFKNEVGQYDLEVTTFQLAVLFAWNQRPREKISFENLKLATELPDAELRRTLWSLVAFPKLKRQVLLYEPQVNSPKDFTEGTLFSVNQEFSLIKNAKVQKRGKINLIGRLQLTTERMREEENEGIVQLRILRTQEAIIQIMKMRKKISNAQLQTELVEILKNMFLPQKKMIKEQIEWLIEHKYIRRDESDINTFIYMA

| effect of a mutation on the interaction | Variant |
| --- | --- |
| increasing interaction | MSVDMNSQGSDSNEEDYDPNCEEEEEEEEDDPGDIEDYYVGVASDVEQQGADAFDPEEYQFTCLTYKESEGALNEHMTSLASVLKVSHSVAKLILVNFHWQVSEILDRYKSNSAQLLVEARVQPNPSKHVPTSHPPHHCAVCMQFVRKENLLSLACQHQFCRSCWEQHCSVLVKDGVGVGVSCMAQDCPLRTPEDFVFPLLPNEELREKYRRYLFRDYVESHYQLQLCPGADCPMVIRVQEPRARRVQCNRCNEVFCFKCRQMYHAPTDCATIRKWLTKCADDSETANYISAHTKDCPKCNICIEKNGGCNHMQCSKAKHDFCWMCLGDWKTHGSEYYECSRYKENPDIVNQSQQAQAREALKKYLFYFERWENHNKSLQLEAQTYQRIHEKIQERVMNNLGTWIDWQYLQNAAKLLAKCRYTLQYTYPYAYYMESGPRKKLFEYQQAQLEAEIENLSWKVERADSYDRGDLENQMHIAEQRRRTLLKDFHDT [C318A] |

Variants of: B1
Settings: with cul5_human CUL5, Q93034
Remark: another data set of the same source

| effect of a mutation on the interaction | Variant |
| --- | --- |
| decreasing interaction | MSVDMNSQGSDSNEEDYDPNCEEEEEEEEDDPGDIEDYYVGVASDVEQQGADAFDPEEYQFTCLTYKESEGALNEHMTSLASVLKVSHSVAKLILVNFHAQVSEILDRYKSNSAQLLVEARVQPNPSKHVPTSHPPHHCAVCMQFVRKENLLSLACQHQFCRSCWEQHCSVLVKDGVGVGVSCMAQDCPLRTPEDFVFPLLPNEELREKYRRYLFRDYVESHYQLQLCPGADCPMVIRVQEPRARRVQCNRCNEVFCFKCRQMYHAPTDCATIRKWLTKCADDSETANYISAHTKDCPKCNICIEKNGGCNHMQCSKCKHDFCWMCLGDWKTHGSEYYECSRYKENPDIVNQSQQAQAREALKKYLFYFERWENHNKSLQLEAQTYQRIHEKIQERVMNNLGTWIDWQYLQNAAKLLAKCRYTLQYTYPYAYYMESGPRKKLFEYQQAQLEAEIENLSWKVERADSYDRGDLENQMHIAEQRRRTLLKDFHDT [W100A] |

Variants of: B1
Settings: with ub2l3_human UBE2L3, P68036

| effect of a mutation on the interaction | Variant |
| --- | --- |
| disrupting interaction | MSVDMNSQGSDSNEEDYDPNCEEEEEEEEDDPGDIEDYYVGVASDVEQQGADAFDPEEYQFTCLTYKESEGALNEHMTSLASVLKVSHSVAKLILVNFHWQVSEILDRYKSNSAQLLVEARVQPNPSKHVPTSHPPHHCAVCMQFVRKENLLSLACQAQFCRSCWEQHCSVLVKDGVGVGVSCMAQDCPLRTPEDFVFPLLPNEELREKYRRYLFRDYVESHYQLQLCPGADCPMVIRVQEPRARRVQCNRCNEVFCFKCRQMYHAPTDCATIRKWLTKCADDSETANYISAHTKDCPKCNICIEKNGGCNHMQCSKCKHDFCWMCLGDWKTHGSEYYECSRYKENPDIVNQSQQAQAREALKKYLFYFERWENHNKSLQLEAQTYQRIHEKIQERVMNNLGTWIDWQYLQNAAKLLAKCRYTLQYTYPYAYYMESGPRKKLFEYQQAQLEAEIENLSWKVERADSYDRGDLENQMHIAEQRRRTLLKDFHDT [H158A] |

Variants of: B1
Settings: with cul5_human CUL5, Q93034
Remark: another data set of the same source

| effect of a mutation on the interaction | Variant |
| --- | --- |
| increasing interaction | MSVDMNSQGSDSNEEDYDPNCEEEEEEEEDDPGDIEDYYVGVASDVEQQGADAFDPEEYQFTCLTYKESEGALNEHMTSLASVLKVSHSVAKLILVNFHWQVSEILDRYKSNSAQLLVEARVQPNPSKHVPTSHPPHHCAVCMQFVRKENLLSLACQHQFCRSCWEQHCSVLVKDGVGVGVSCMAQDCPLRTPEDFVFPLLPNEELREKYRRYLFRDYVESHYQLQLCPGADCPMVIRVQEPRARRVQCNRCNEVFCFKCRQMYHAPTDCATIRKWLTKCADDSETANYISAHTKDCPKCNICIEKNGGANHMQCSKCKHDFCWMCLGDWKTHGSEYYECSRYKENPDIVNQSQQAQAREALKKYLFYFERWENHNKSLQLEAQTYQRIHEKIQERVMNNLGTWIDWQYLQNAAKLLAKCRYTLQYTYPYAYYMESGPRKKLFEYQQAQLEAEIENLSWKVERADSYDRGDLENQMHIAEQRRRTLLKDFHDT [C310A] |

Variants of: B1
Settings: with cul5_human CUL5, Q93034
Remark: another data set of the same source

| effect of a mutation on the interaction | Variant |
| --- | --- |
| increasing interaction | MSVDMNSQGSDSNEEDYDPNCEEEEEEEEDDPGDIEDYYVGVASDVEQQGADAFDPEEYQFTCLTYKESEGALNEHMTSLASVLKVSHSVAKLILVNFHWQVSEILDRYKSNSAQLLVEARVQPNPSKHVPTSHPPHHCAVCMQFVRKENLLSLACQHQFCRSCWEQHCSVLVKDGVGVGVSCMAQDCPLRTPEDFVFPLLPNEELREKYRRYLFRDYVESHYQLQLCPGADCPMVIRVQEPRARRVQCNRCNEVFCFKCRQMYHAPTDCATIRKWLTKCADDSETANYISAHTKDCPKCNICIEKNGGSNHMQCSKCKHDFCWMCLGDWKTHGSEYYECSRYKENPDIVNQSQQAQAREALKKYLFYFERWENHNKSLQLEAQTYQRIHEKIQERVMNNLGTWIDWQYLQNAAKLLAKCRYTLQYTYPYAYYMESGPRKKLFEYQQAQLEAEIENLSWKVERADSYDRGDLENQMHIAEQRRRTLLKDFHDT [C310S] |

Variants of: B1
Settings: with cul5_human CUL5, Q93034
Remark: another data set of the same source

| effect of a mutation on the interaction | Variant |
| --- | --- |
| increasing interaction | MSVDMNSQGSDSNEEDYDPNCEEEEEEEEDDPGDIEDYYVGVASDVEQQGADAFDPEEYQFTCLTYKESEGALNEHMTSLASVLKVSHSVAKLILVNFHWQVSEILDRYKSNSAQLLVEARVQPNPSKHVPTSHPPHHCAVCMQFVRKENLLSLACQHQFCRSCWEQHCSVLVKDGVGVGVSCMAQDCPLRTPEDFVFPLLPNEELREKYRRYLFRDYVESHYQLQLCPGADCPMVIRVQEPRARRVQCNRCNEVFCFKCRQMYHAPTDCATIRKWLTKCADDSETANYISAHTKDCPKANICIEKNGGCNHMQCSKCKHDFCWMCLGDWKTHGSEYYECSRYKENPDIVNQSQQAQAREALKKYLFYFERWENHNKSLQLEAQTYQRIHEKIQERVMNNLGTWIDWQYLQNAAKLLAKCRYTLQYTYPYAYYMESGPRKKLFEYQQAQLEAEIENLSWKVERADSYDRGDLENQMHIAEQRRRTLLKDFHDT [C300A] |

Variants of: B1
Settings: with cul5_human CUL5, Q93034
Remark: another data set of the same source

| effect of a mutation on the interaction | Variant |
| --- | --- |
| decreasing interaction | MSVDMNSQGSDSNEEDYDPNCEEEEEEEEDDPGDIEDYYVGVASDVEQQGADAFDPEEYQFTCLTYKESEGALNEHMTSLASVAKASHSVAKLILVNFHAQVSEILDRYKSNSAQLLVEARVQPNPSKHVPTSHPPHHCAVCMQFVRKENLLSLACQHQFCRSCWEQHCSVLVKDGVGVGVSCMAQDCPLRTPEDFVFPLLPNEELREKYRRYLFRDYVESHYQLQLCPGADCPMVIRVQEPRARRVQCNRCNEVFCFKCRQMYHAPTDCATIRKWLTKCADDSETANYISAHTKDCPKCNICIEKNGGCNHMQCSKCKHDFCWMCLGDWKTHGSEYYECSRYKENPDIVNQSQQAQAREALKKYLFYFERWENHNKSLQLEAQTYQRIHEKIQERVMNNLGTWIDWQYLQNAAKLLAKCRYTLQYTYPYAYYMESGPRKKLFEYQQAQLEAEIENLSWKVERADSYDRGDLENQMHIAEQRRRTLLKDFHDT [L84A;V86A;W100A] |
